# Data reported in patent US20180094062A1 (Hoffmann-La Roche, published 2018).
# Changes are numbered by the printed parent chain.
# B1: anti-HER3 antibody M-46-01 (antibody, V domains shown)
# VH: QIQLQQSGPQLVRPGASVKISCKASGYSFTSYWMHWVKQRPGRGLEWIGMIDPSDGVTRLNQKFKDKATLTVDNSSSTAYMQLSSPTSEDSAVHYCARVDVLYWYFDVWGAGTTVTVSS
# VL: DIVLTQSPASLAVSLGQRATISCRASKSISISGYSYMHWYQQKAGQPPKLLIYLTSNLESGVPARFSGSGSGTDFTLNIHPVEEEDAATYYCHHSRELPFTFGSGTKLEIK
# notes: mouse hybridoma clone
# B2: anti-HER3 antibody M-17-02 (antibody, V domains shown)
# VH: EVQLQQSGTVLARPGASVKMSCKASGYSFTSYWIHWVKQRPGQGLEWIGAIYPGNSDTTYNQKFKGKAKLTAVTSASTAYMELSSLTNEDSAVYYCARTGVWTSYYFDYWGQGTTLTVSS
# VL: DIQMTQSPASLSASVGETVTITCRASENIYSNLAWYQQKQGKSPQLLVYAATNLADGVPSRFSGSGSGTQFSLRINSLQPEDFGSYYCQHFYGTPFTFGTGTKLEIK
# notes: mouse hybridoma clone
# B3: anti-HER3 antibody M-43-01 (antibody, V domains shown)
# VH: EVQLQQSGTVLARPGASVKMSCKASDYTFSNYWVHWVKQRPGQGLEWIGAIYPGNGDSTYYQKFKGKATLTAVTSTSTAYMDLSSLTNGDSAVYFCTRSGVGYNYYFDYWGQGTTLTVSS
# VL: B2 VL with A50I, R74K, F83L, K107E
# notes: mouse hybridoma clone
# B4: anti-HER3 antibody M-08-11 (antibody, V domains shown)
# VH: QAYLQQSGAELMRPGASVRMSCQASGYTFTSYTIHWLKQTPRQGLEWIGAIYPRNGDFSYNQKFKDKASLTVDTSSSTAYMHLSSLTSEDSAVYFCARTINYGDWFAYWGQGTLVTVSA
# VL: DIQMIQSPASLFVSEGETVIITCRASENIYSNLAWYHQKKGKSPQVLVYAAIKLADGVPLRFSGSGSGTQFSLKINSLQSEDFGSYYCQHFWGPPYTFGSGTNLEIK
# notes: mouse monoclonal antibody from hybridoma, tested as hybridoma supernatant or as antibody; also called M-011
# Biological target: T1, HER1, full length, on transfected HEK293 cells (human, UniProt P00533 25-1210)
# T1 construct: HEK293 transiently transfected with a plasmid coding for full length HER1; also called EGFR
# Assay: IHC on HEK293 cells transiently transfected with full length HER1; NC = untransfected cells
# Method: (§1) All selected clones were tested for reactivity and specificity in IHC. […] After an additional fixation in formalin overnight the Agarose blocks were embedded in paraffin. Untransfected HEK293 cells were used as negative controls and treated accordingly to the transfected cells. After paraffin embedding 3 μm thin sections were prepared using a microtome. The sections were mounted on glass microscopy slides and dried for 2 h. All further steps of the immunohistochemical staining procedure were carried out using a Ventana Benchmark XT. The slides were dewaxed and antigen retrieval was performed by applying heat for 1 hour. For antigen retrieval the Ventana buffer CC1 was used. The antibodies were used at a concentration of 1 μg/ml. For the detection of bound antibody the Ventana UltraView detection kit was used.
row,Binder,binding result
1,B1,no binding
2,B2,no binding
3,B3,no binding

# Biological target: HER4, full length, on transfected HEK293 cells (human, UniProt Q15303 26-1308)
# Assay: IHC on HEK293 cells transiently transfected with full length HER4; NC = untransfected cells
# Method: as §1
# Sequence of HER4, full length, on transfected HEK293 cells (Q15303 26-1308): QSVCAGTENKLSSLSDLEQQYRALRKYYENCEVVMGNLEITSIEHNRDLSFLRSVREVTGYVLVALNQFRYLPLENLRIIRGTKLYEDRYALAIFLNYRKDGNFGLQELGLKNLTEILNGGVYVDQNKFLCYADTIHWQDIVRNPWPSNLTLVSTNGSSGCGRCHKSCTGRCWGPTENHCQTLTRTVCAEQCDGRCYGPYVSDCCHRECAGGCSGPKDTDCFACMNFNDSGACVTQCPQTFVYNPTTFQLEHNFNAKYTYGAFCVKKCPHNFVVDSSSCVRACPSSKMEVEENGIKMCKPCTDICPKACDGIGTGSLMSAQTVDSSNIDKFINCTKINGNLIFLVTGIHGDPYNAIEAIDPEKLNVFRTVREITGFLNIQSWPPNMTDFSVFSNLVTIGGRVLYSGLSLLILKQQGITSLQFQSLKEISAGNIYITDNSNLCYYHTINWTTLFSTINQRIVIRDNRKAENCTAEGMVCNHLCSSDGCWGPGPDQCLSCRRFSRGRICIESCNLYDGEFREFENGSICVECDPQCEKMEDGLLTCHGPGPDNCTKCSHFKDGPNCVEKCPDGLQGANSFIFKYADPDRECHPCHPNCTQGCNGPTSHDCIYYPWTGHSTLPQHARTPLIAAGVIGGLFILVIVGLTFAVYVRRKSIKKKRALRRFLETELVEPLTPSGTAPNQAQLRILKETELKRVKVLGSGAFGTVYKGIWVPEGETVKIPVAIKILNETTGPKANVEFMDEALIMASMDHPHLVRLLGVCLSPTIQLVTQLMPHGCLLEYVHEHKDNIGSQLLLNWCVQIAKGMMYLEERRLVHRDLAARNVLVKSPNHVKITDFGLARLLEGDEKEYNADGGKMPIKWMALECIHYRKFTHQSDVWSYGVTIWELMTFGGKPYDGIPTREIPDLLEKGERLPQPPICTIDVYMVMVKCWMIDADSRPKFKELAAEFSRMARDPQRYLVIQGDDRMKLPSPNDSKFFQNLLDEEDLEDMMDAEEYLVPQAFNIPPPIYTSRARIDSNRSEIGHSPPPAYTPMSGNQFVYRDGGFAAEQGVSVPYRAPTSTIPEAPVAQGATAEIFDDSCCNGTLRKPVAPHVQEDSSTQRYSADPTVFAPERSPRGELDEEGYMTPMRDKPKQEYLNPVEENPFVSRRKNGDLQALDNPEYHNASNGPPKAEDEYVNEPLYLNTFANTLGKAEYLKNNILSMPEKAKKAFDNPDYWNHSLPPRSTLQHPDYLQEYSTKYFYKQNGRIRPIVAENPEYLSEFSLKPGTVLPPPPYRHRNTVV
row,Binder,binding result
1,B4,no binding
2,B1,no binding
3,B2,no binding
4,B3,no binding

# Biological target: HER2, full length, on cells (transfected HEK293, MCF7) (human, UniProt P04626 23-1255)
# Assay: IHC on HEK293 cells transiently transfected with full length HER2; NC = untransfected cells
# Method: as §1
row,Binder,binding result
1,B4,no binding
2,B1,no binding
3,B2,no binding
4,B3,no binding

# Biological target: T2, HER3 ECD-HRG complex (Heregulin-activated Her-3 ECD) (human, UniProt P21860 20-643)
# T2 construct: receptor-ligand complex made by preincubating HER3 ECD with a five-fold molar excess of Heregulin; also called Heregulin/Her-3 ECD; Heregulin-complexed Her-3 ECD
# Assay: SPR, Interaction Map (TraceDrawer), two-state-kinetic no. 1, 25 C
# Method: A Biacore T200 instrument (GE Healthcare) was mounted with a CM5 series sensor. The sensor was normalized in HBS-ET buffer (10 mM HEPES pH 7.4, 150 mM NaCl, 3 mM EDTA, 0.05% w/v Tween 20) according to the manufacturer's instructions. The sample buffer was the system buffer supplemented with 1 mg/ml CMD (Carboxymethyldextran, Sigma #86524). The system operated at 25° C. 6500 RU RAM-Fcγ (relative units of Fcγ-fragment RamlgG, GE Healthcare) were immobilized according to the manufacturer's instructions using amine coupling EDC/NHS chemistry on all four flow cells. The sensor was deactivated using 1M ethanolamine. […] Concentration dependent kinetics were measured. […] All analytes were injected for 5 min association time and 10 min dissociation time at 100 μl/min flow rate. The sensor capture system was regenerated by a 3 min injection at 10 μl/min of 10 mM glycine pH 1.7. Where possible kinetic data was evaluated using the Biacore T200 evaluation software.
Binder,Kd,Weight (contribution to the overall interaction),koff,kon
B4,419 nM,79%,0.0799 s⁻¹,191000 M⁻¹ s⁻¹
B1,356 nM,77%,0.232 s⁻¹,652000 M⁻¹ s⁻¹
B3,261 nM,69%,0.141 s⁻¹,541000 M⁻¹ s⁻¹

# Biological target: T3, human recombinant HER3 Extracellular Domain (HER3 ECD) (human, UniProt P21860 20-643)
# T3 construct: 68 kDa; also called human-Her3-ECD
# Assay: SPR Biacore 4000 kinetic screening, antibody captured, analyte 150 nM, 25 C
# Method: (§2) In all assay the test antibodies were captured. The system was under the control of the software version V1.1. The instrument buffer was HBS-EP (10 mM HEPES (pH 7.4), 150 mM NaCl, 1 mM EDTA, 0.05% (w/v) P20). The system operated at 25° C. 30 μg/ml Rabbit polyclonal antibody (RAM IgG, (Rabbit anti Mouse IgG with Fc gamma specificity) GE Healthcare) in 10 mM sodium acetate buffer (pH 4.5) was immobilized using EDC/NHS chemistry according to the manufacturer's instructions on the spots 1, 2, 4 and 5 in the flow cells 1, 2, 3 and 4. The sensor was saturated using 1M ethanolamine. In each flow cell, referenced signals were calculated using spots 1-2 and spots 5-4, spot 3 served as a blanc control. […] Prior to their application the hybridoma culture supernatants were diluted 1:5 in instrument buffer. The diluted mixtures were injected at a flow rate of 30 μl/min for 2 min. The antibody capture level (CL) in response units was monitored. Immediately thereafter the respective antigen was injected at a flow rate of 30 μl/min for 3 min association time. Thereafter, the antibody-antigen complex dissociation signal was recorded for 5 min. The sensor was regenerated by injecting a 10 mM glycine-HCl solution (pH 1.7) for 2 min at a flow rate of 30 μl/min. The recorded signal shortly before the end of the injection of the antigen was denoted as binding late (BL) in response units. The recorded signal shortly before the end of the recording of the dissociation is denoted as stability late (SL) in response units. The dissociation rate constants were determined calculated The antibody-antigen complex stability in minutes was calculated with the following formula: […]. The Molar Ratio was calculated with the formula: MW (antibody)/MW (antigen) *BL (antigen)/CL (antibody).
Binder,BL (binding late),MR (Molar Ratio),SL (stability late),koff,t/2 diss
B4,61 RU,0.4,62 RU,4.11e-05 s⁻¹,281 min
B1,21 RU,0.2,17 RU,0.00041 s⁻¹,28 min
B2,10 RU,0.1,10 RU,–,–
B3,9 RU,0.1,8 RU,0.00066 s⁻¹,18 min

# Biological target: T4, recombinant Thermus thermophilus SlyD FKBP-Her3 (TtSlyD-FKBP-Her3)
# T4 construct: expressed in E. coli, the N-terminal methionine can be present or not; also called thermo SlyD-Her3; T.T.SlyD-Her3
# T4 chain: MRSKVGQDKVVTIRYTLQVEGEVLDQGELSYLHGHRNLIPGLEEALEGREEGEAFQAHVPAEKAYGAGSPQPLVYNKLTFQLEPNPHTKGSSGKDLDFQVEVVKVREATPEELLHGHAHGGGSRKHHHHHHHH
# Assay: as above
# Method: as §2
Binder,BL (binding late),MR (Molar Ratio),SL (stability late),koff,t/2 diss
B4,46 RU,1.3,45 RU,0.000102 s⁻¹,114 min
B1,80 RU,1.8,71 RU,0.00028 s⁻¹,41 min
B2,52 RU,1.7,50 RU,0.0002 s⁻¹,59 min
B3,53 RU,1.7,51 RU,0.00016 s⁻¹,73 min

# Biological target: T2, HER3 ECD-HRG complex …
# Assay: SPR, Interaction Map (TraceDrawer), two-state-kinetic no. 2, 25 C
Binder,Kd,Weight (contribution to the overall interaction),koff,kon
B4,23 nM,6%,0.000449 s⁻¹,19500 M⁻¹ s⁻¹
B1,15.7 nM,7%,0.000774 s⁻¹,49400 M⁻¹ s⁻¹
B3,62 nM,13%,0.000988 s⁻¹,15900 M⁻¹ s⁻¹
